In publication PMC3322389 (Structure(London, England:1993), 2012):

Molecular target: the molecule itself
Experiment: AUC

B1: Aureochrome1 LOV domain (AuLOV), residues 176-337 of V. frigida Aureochrome1 (domain or fragment, UniProt A8QW55 176-337, looked up)
chain: DSLIAQCSPEADTLLTDNPSKANRILEDPDYSLVKALQMAQQNFVITDASLPDNPIVYASRGFLTLTGYSLDQILGRNCRFLQGPETDPRAVDKIRNAITKGVDTSVCLLNYRQDGTTFWNLFFVAGLRDSKGNIVNYVGVQSKVSEDYAKLLVNEQNIEYK
  stoichiometry N: 2
